Assay [1] has as its target HLA-B*4001 (human). The assay can be described thus: competition binding assay, purified HLA class I.
The target in assay [2] is HLA-B*4403 (human). The assay can be described thus: competition binding assay, purified HLA class I.

Consider “WEELSML (MAGE2 position 234, 7-mer) (peptide)”, for which the IC50 is 10.4 µM in assay [1] and 2.01 µM in assay [2].

Values taken from patent EP1903056A2.
